Results as given in publication doi:10.1101/2020.06.01.127704 (bioRxiv, 2020).

Target: the molecule itself
Experiment: cryo-EM structure

B1: full-length human excitatory amino acid transporter 3 with two potential glycosylation sites mutated (N178T and N195T) (natural protein, UniProt P43005 1-524, looked up)
chain: MGKPARKGCEWKRFLKNNWVLLSTVAAVVLGITTGVLVREHSNLSTLEKFYFAFPGEILMRMLKLIILPLIISSMITGVAALDSNVSGKIGLRAVVYYFCTTLIAVILGIVLVVSIKPGVTQKVGEIARTGSTPEVSTVDAMLDLIRNMFPENLVQACFQQYKTKREEVKPPSDPEMTMTEESFTAVMTTAISKTKTKEYKIVGMYSDGINVLGLIVFCLVFGLVIGKMGEKGQILVDFFNALSDATMKIVQIIMCYMPLGILFLIAGKIIEVEDWEIFRKLGLYMATVLTGLAIHSIVILPLIYFIVVRKNPFRFAMGMAQALLTALMISSSSATLPVTFRCAEENNQVDKRITRFVLPVGATINMDGTALYEAVAAVFIAQLNDLDLGIGQIITISITATSASIGAAGVPQAGLVTMVIVLSAVGLPAEDVTLIIAVDWLLDRFRTMVNVLGDAFGTGIVEKLSKKELEQMDVSSEVNIVNPFALESTILDNEDSDTKKSYVNGGFAVDKSDTISFTQTSQF
B1 was tested, and the “stoichiometry N” value was 3.
